Article PMC12326332, “Tuning ubiquitin transfer by RING E3 ubiquitin ligases through the linchpin residue” (Life Science Alliance, 2025)

Target: T1, mature human SMAC^56-C (human, UniProt Q9NR28 56-239)
T1 construct: SMAC (DIABLO), mature form starting from Ala56 to the C terminus; expressed as a SUMO fusion in pRSF-DUET1 so that the N terminus starts from Ala56; also called SMAC^56-C,Strep-II; mature SMAC; source: E. coli BL21 (DE3) Rosetta 2 pLysS, purified (His-TRAP, Superdex 75); not shown: SUMO, N-terminal, cleaved
T1 sequence (looked up): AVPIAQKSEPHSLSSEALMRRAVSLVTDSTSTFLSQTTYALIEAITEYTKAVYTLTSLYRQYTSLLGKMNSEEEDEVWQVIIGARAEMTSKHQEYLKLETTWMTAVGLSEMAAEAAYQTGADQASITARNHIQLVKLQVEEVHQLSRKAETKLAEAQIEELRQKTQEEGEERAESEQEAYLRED
Experiment: SEC; gel filtration elution profiles of XIAP-RNF38^WT, SMAC^56-C and the E3/SMAC mixture
Details: both partners purified

B1: XIAP^145-430-RNF38^389-C (other, UniProt P98170 145-430, looked up)
chain: QVVDISDTIYPRNPAMYSEEARLKSFQNWPDYAHLTPRELASAGLYYTGIGDQVQCFCCGGKLKNWEPCDRAWSEHRRHFPNCFFVLGRNLNIRSESDAVSSDRNFPNSTNLPRNPSMADYEARIFTFGTWIYSVNKEQLARAGFYALGEGDKVKCFHCGGGLTDWKPSEDPWEQHAKWYPGCKYLLEQKGQEYINNIHLTHSLEECLVRTTEKTPSLTRRIDDTIFQNPMVQEAIRMGFSFKDIKKIMEEKIQISGSNYKSLEVLVADLVNAQKDSMQDESSQTSTKADIEQLPSYRFNPNNHQSEQTLCVVCMCDFESRQLLRVLPCNHEFHAKCVDKWLKANRTCPICRADASEVHRDSE
notes: XIAP (BIRC4) residues 145-430 with the substrate-recruiting BIR2 and BIR3 domains; RNF38 RING domain, residue 389 to the C terminus; no linker between the two parts is told; also called XIAP-RNF38; XIAP-RNF38^WT; source: E. coli BL21 (DE3) Rosetta 2 pLysS, purified
B1: binds.
